How the values were obtained:
[1] = target: MUC5AC (NPC-1 antigen) expressed by SW480 human colorectal tumor cells (human) (UniProt P98088); assay: flow cytometry on SW480 cells
[2] = target: MUC5AC (NPC-1 antigen) expressed by LS174T human colorectal tumor cells (human) (UniProt P98088); assay: flow cytometry on LS174T cells
[3] = target: MUC5AC (NPC-1 antigen) expressed by CFPAC-1 human pancreatic tumor cells (human) (UniProt P98088); assay: flow cytometry on CFPAC-1 cells
[4] = target: MUC5AC (NPC-1 antigen) expressed by Colo-205 human colorectal tumor cells (human) (UniProt P98088); assay: flow cytometry on Colo-205 cells
[5] = target: MUC5AC (NPC-1 antigen) expressed by CFPAC-1 human pancreatic tumor cells (human) (UniProt P98088); assay: FACS, 2 µg/ml isotype control antibody-FITC on CFPAC cells
[6] = target: MUC5AC (NPC-1 antigen) expressed by LS174T human colorectal tumor cells (human) (UniProt P98088); assay: FACS, 2 µg/ml isotype control antibody-FITC on LS174 cells
[7] = target: MUC5AC (NPC-1 antigen) expressed by SW480 human colorectal tumor cells (human) (UniProt P98088); assay: FACS, 2 µg/ml isotype control antibody-FITC on SW480 cells
[8] = target: MUC5AC (NPC-1 antigen) expressed by Colo-205 human colorectal tumor cells (human) (UniProt P98088); assay: FACS, 2 µg/ml isotype control antibody-FITC on Colo-205 cells

Chain of MUC5AC (NPC-1 antigen) expressed by CFPAC-1 human pancreatic tumor cells (human) (P98088 other isoform, or with tags, fused parts or gaps limits assumed): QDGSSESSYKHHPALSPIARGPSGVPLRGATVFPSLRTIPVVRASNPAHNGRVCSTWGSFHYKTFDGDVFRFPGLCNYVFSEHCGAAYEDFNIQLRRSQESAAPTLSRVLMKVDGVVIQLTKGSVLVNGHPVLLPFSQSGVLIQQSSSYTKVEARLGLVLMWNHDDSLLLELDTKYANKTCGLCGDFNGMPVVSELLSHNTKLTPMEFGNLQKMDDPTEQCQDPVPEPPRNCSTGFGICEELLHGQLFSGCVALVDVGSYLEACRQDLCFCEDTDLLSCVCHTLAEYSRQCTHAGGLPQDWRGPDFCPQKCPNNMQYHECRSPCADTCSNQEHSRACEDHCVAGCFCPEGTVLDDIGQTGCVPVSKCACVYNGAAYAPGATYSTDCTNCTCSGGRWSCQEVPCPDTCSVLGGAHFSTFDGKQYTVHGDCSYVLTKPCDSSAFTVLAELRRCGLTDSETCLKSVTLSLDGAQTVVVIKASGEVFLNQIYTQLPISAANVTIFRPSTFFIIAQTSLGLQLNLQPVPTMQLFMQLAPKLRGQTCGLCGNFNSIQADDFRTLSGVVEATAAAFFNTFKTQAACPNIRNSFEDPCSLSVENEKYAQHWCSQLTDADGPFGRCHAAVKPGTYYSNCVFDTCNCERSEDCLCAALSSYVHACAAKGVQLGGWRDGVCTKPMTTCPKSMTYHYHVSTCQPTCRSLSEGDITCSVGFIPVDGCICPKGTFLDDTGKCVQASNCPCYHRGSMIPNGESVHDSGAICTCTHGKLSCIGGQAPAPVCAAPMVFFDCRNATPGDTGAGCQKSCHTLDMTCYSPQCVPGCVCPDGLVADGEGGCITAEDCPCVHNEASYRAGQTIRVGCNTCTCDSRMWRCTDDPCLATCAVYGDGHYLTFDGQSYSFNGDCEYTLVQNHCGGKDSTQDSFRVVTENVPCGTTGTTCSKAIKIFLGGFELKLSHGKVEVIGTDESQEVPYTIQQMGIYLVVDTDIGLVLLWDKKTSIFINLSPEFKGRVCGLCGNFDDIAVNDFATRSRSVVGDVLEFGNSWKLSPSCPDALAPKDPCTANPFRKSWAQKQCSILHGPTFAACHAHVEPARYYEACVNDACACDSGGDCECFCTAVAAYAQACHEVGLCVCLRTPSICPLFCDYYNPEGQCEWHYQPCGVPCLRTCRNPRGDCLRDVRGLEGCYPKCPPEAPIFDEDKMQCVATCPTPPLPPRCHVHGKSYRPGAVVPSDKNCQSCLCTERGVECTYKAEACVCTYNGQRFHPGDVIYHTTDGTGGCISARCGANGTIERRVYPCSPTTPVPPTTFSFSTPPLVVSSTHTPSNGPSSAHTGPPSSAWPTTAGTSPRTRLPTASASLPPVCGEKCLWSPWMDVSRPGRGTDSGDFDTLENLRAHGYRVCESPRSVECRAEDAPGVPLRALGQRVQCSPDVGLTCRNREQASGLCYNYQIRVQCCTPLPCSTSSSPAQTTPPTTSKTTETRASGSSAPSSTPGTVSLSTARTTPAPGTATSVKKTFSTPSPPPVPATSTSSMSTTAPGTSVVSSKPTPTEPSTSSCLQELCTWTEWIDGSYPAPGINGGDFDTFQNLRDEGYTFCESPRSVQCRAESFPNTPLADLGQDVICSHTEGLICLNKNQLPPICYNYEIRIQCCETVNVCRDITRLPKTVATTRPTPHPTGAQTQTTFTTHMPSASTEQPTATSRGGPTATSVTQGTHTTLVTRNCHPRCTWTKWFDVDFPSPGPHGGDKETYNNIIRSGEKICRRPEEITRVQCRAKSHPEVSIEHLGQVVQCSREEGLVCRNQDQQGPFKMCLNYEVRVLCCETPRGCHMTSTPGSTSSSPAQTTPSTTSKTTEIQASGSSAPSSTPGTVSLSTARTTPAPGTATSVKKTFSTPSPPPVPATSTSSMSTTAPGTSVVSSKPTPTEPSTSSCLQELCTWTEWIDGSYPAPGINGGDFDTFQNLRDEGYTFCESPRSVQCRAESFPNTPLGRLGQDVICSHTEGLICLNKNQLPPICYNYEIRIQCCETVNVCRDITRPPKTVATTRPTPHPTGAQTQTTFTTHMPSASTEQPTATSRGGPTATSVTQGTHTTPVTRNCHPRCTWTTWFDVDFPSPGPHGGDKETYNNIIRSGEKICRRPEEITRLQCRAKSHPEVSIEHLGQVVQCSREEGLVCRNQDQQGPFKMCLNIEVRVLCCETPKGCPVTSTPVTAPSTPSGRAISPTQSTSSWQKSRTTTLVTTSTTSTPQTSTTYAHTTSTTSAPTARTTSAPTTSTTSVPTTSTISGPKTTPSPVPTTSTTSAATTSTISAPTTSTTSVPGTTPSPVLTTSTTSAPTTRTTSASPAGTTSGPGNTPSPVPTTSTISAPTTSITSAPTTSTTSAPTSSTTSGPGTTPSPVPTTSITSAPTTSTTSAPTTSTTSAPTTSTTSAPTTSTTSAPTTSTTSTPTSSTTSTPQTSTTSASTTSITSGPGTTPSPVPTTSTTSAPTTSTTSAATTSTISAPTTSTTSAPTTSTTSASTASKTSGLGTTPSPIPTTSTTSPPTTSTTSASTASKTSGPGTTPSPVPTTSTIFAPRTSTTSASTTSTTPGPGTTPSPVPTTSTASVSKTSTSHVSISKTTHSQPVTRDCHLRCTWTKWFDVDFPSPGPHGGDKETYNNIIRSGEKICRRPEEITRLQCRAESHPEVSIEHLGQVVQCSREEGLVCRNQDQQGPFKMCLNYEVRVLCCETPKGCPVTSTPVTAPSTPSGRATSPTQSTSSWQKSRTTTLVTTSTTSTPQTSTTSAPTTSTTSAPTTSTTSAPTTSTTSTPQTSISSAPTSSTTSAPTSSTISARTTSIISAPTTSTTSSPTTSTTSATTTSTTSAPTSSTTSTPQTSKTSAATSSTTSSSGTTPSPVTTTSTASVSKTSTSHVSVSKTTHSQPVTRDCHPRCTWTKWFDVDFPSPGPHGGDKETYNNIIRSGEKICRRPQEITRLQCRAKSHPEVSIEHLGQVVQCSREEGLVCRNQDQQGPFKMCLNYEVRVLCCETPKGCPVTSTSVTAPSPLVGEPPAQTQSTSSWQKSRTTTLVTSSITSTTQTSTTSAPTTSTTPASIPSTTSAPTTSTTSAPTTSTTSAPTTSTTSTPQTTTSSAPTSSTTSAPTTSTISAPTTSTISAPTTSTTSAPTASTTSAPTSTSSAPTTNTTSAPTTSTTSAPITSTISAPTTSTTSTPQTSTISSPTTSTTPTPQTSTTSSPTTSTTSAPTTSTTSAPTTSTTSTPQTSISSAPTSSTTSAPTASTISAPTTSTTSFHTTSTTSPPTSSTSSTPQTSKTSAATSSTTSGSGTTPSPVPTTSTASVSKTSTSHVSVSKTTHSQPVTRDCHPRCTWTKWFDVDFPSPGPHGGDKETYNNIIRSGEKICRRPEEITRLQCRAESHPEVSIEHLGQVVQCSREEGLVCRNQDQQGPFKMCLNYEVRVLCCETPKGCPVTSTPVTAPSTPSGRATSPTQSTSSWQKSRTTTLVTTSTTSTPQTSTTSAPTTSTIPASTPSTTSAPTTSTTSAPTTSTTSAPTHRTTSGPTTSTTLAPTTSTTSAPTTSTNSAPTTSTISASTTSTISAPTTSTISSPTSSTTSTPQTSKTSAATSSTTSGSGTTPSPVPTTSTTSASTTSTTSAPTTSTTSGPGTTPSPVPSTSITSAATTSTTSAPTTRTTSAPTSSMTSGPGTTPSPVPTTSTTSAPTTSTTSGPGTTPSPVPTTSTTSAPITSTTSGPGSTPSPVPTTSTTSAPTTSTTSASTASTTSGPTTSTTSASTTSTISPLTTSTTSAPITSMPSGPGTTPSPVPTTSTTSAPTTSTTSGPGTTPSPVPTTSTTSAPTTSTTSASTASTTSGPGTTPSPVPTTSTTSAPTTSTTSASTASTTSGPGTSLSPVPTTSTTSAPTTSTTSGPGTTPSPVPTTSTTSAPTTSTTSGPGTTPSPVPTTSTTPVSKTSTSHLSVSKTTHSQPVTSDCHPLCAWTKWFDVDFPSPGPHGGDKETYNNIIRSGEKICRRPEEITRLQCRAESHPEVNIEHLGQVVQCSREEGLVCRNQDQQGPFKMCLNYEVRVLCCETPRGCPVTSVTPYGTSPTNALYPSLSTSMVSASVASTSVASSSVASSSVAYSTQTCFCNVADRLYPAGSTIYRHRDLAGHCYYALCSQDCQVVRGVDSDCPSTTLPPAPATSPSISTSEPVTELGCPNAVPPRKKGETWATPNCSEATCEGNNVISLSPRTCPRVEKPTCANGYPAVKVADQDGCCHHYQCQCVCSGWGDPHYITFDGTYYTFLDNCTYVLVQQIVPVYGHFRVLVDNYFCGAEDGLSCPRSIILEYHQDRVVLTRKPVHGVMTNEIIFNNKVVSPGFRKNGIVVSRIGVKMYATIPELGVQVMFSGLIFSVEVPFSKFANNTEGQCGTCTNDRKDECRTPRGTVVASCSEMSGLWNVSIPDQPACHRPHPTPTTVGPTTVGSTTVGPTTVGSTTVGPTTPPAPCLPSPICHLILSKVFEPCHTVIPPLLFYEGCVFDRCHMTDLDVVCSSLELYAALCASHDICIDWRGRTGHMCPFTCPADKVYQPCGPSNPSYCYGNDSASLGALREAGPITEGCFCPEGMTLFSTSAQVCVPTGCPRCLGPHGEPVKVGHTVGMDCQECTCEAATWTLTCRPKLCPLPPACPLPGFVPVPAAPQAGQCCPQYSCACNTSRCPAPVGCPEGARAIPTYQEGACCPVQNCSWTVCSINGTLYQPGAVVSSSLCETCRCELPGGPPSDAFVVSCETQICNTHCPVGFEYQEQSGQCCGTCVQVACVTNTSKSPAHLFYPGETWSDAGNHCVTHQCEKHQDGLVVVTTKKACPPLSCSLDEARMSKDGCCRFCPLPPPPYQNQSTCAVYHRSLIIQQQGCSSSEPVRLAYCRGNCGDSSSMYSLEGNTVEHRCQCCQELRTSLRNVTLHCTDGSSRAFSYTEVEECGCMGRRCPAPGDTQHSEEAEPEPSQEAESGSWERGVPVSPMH
Chain of MUC5AC (NPC-1 antigen) expressed by LS174T human colorectal tumor cells (human) (P98088 other isoform, or with tags, fused parts or gaps limits assumed, change not shown): as the sequence (P98088 other isoform, or with tags, fused parts or gaps limits assumed) above
Chain of MUC5AC (NPC-1 antigen) expressed by Colo-205 human colorectal tumor cells (human) (P98088 other isoform, or with tags, fused parts or gaps limits assumed): as above
Chain of MUC5AC (NPC-1 antigen) expressed by SW480 human colorectal tumor cells (human) (P98088 other isoform, or with tags, fused parts or gaps limits assumed): as above

Substance: Isotype control antibody
- mfi [1]: 56 mfi
- mfi [2]: 35 mfi
- mfi [3]: 25 mfi
- mfi [4]: 34 mfi
- Percent positive [5]: 1.79%
- Percent positive [6]: 3.85%
- Percent positive [7]: 3.38%
- Percent positive [8]: 2.33%

Source: patent US20130247232A1
